Source: patent US20210332120A1

Target: human IL-17A (human) (UniProt Q16552)
Assay: BLI Octet Red 96; Fab on anti-FABCH1 sensors, IL-17A 30 µg/ml as analyte, 1:1 model

Sequence of human IL-17A (human) (Q16552 20-155 limits assumed): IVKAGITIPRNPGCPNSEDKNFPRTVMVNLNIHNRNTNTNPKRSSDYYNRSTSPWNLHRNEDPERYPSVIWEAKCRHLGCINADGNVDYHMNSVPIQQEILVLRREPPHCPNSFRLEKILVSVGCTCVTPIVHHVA

koff: < 2.27e-06 s⁻¹
B1: 3VHHVK4B11 Fab (Fab, part only; not given: Light chain VK4B11, tags, not shown: small tags and cut ends)
heavy: QVQLQQSGGGSVQAGGSLRLSCAASGGTFATSPMGWLRQAPGKEREFVAAISPSGGDRIYDDSVKGRFTISRDNAGYFIYLQMNSLKPEDTARYYCAVRRRFDGTSYYTGDYDSWGQGTLVTVSS
